Source: patent US20230323410A1, “BACTERIAL CELLS AND METHODS FOR PRODUCTION OF 2-FLUORO-CIS,CIS-MUCONATE” (priority 2020, published 2023)

Tested on: msfGFP reporter gene under control of BCD10
Type: cell-based, P. putida KT2440
Details: 5 mM 3-FBz (inducible systems), 30 mM glucose, FIG. 6

B1: PEM7: constitutive promoter, SEQ ID NO: 59 (nucleic acid)
DNA: TTGTTGACAATTAATCATCGGCATAGTATATCGGCATAGTATAATACGACAAGGTGAGGAACTAAACC
modifications: expressed or natural sequence
In the case of B1, the “transcription initiation rate: quotient of OD630 nm-normalized fluorescence with the one of Ptac” value is reported as 0.57.
